Test results: patent US6090911

Key:
[1] = target: T1, B1 basic leucine zipper protein; experiment: urea denaturation of the equimolar mixture followed by CD at 222 nm, two-state model; ΔGu from lnKd,u (dissociation of the dimers) extrapolated to zero denaturant
T1 sequence: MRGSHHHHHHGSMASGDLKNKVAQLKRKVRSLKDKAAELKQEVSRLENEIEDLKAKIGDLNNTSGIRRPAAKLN

[2] = target: A1 acidic leucine zipper protein; experiment: urea denaturation followed by CD at 222 nm; difference in the free energies of unfolding at 50% unfolded
[3] = target: T1, B1 basic leucine zipper protein; experiment: urea denaturation of the equimolar mixture followed by CD at 222 nm; difference in the free energies of unfolding at 50% unfolded
[4] = target: A1 acidic leucine zipper protein; experiment: urea denaturation followed by CD at 222 nm, two-state model; ΔGu from lnKd,u (dissociation of the dimers) extrapolated to zero denaturant
[5] = target: A1 acidic leucine zipper protein; experiment: analytical ultracentrifugation of protein solutions (24 to 220 µM); self-association of A1 dimers to tetramers; 95% confidence limits printed as (50-112)
[6] = target: T1, B1 basic leucine zipper protein; experiment: urea denaturation followed by CD at 222 nm; difference in the free energies of unfolding at 50% unfolded
[7] = target: T1, B1 basic leucine zipper protein; experiment: urea denaturation followed by CD at 222 nm, two-state model; ΔGu from lnKd,u (dissociation of the dimers) extrapolated to zero denaturant
[8] = target: T1, B1 basic leucine zipper protein; experiment: analytical ultracentrifugation of protein solutions (24 to 220 µM); self-association of B1 dimers to tetramers; 95% confidence limits printed as (1-6)

B1: A1 acidic leucine zipper protein (designed binder)
chain: MRGSHHHHHHGSMASGDLENEVAQLEREVRSLEDEAAELEQKVSRLKNEIEDLKAEIGDLNNTSGIRRPAAKLN
- ΔGu [1]: 57.6 kJ/mol
- ΔΔGu [2]: 0 kJ/mol
- ΔΔGu [3]: 11.5 kJ/mol
- ΔGu [4]: 48.3 kJ/mol
- Dimer-Tetramer Kd [5]: 76 µM

B2: B1 basic leucine zipper protein (designed binder)
chain: MRGSHHHHHHGSMASGDLKNKVAQLKRKVRSLKDKAAELKQEVSRLENEIEDLKAKIGDLNNTSGIRRPAAKLN
- ΔΔGu [6]: 0.544 kJ/mol
- ΔGu [7]: 52.5 kJ/mol
- Dimer-Tetramer Kd [8]: 123 µM
